Data on five molecules can be found in patent EP4574844A1 (Numab Therapeutics AG, dated 2025).

Test [1] deals with T1, recombinant human CD47 (human, UniProt Q08722 19-139, limits assumed). Kind of test: SPR, CD47 immobilised, scFv as analyte, 1:1 Langmuir. In general terms: SPR reads the build-up and loss of mass on a sensor chip optically.
Another test concerns the target T2, recombinant human PDL1 (human, UniProt Q9NZQ7 19-238, limits assumed).
T2 construct: SPR antigen; also called CD274; B7-H1
Kind of test: SPR, antigen immobilised, antibody as analyte.

Test [2] has as its target T1, recombinant human CD47. Kind of test: SPR, antigen immobilised, antibody as analyte.
In test [3] the target is T3, human CD47 on the cell surface (human, UniProt Q08722 19-323). The test can be described thus: cell-based or functional assay.
The target in test [4] is human PD-L1 on the cell surface (human, UniProt Q9NZQ7 19-290). Kind of test: cell-based or functional assay.
The target of test [5] is T3, human CD47 on the cell surface. The test can be described thus: cell-based or functional assay. This is another data set of the same source.
Test [6] has as its target T4, human LILRB2 on the cell surface (human, UniProt Q8N423 22-597). The test can be described thus: cell-based or functional assay.
The next test deals with T5, recombinant human LILRB2 (human, UniProt Q8N423 22-460, limits assumed).
T5 construct: also called ILT4
T5 sequence (Q8N423 22-460 limits assumed): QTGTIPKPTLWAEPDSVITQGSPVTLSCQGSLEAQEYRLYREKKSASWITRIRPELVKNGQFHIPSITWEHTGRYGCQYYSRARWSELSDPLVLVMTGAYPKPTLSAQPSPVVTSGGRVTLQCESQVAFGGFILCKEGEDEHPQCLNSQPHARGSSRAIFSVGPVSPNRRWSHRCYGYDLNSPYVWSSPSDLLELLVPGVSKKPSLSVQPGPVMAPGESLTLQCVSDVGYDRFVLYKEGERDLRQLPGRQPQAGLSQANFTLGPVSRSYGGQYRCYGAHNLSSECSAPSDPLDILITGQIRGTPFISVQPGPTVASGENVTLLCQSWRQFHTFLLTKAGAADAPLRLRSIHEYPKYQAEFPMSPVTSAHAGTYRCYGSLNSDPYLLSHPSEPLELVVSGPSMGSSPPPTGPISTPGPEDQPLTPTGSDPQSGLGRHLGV
Kind of test: SPR, antibody captured by anti-framework IgG, antigen as analyte (without avidity).

The target of test [7] is T4, human LILRB2 on the cell surface. Kind of test: cell-based or functional assay. The source holds these as a separate data set.
Test [8] deals with T3, human CD47 on the cell surface. Kind of test: cell-based or functional assay. The source holds these as a separate data set.
Test [9] concerns the target T6, recombinant cynomolgus PDL1 (cynomolgus monkey, UniProt G7PSE7 19-238).
T6 construct: also called cynom; PDL1
The test can be described thus: SPR, antigen immobilised, antibody as analyte.

Test [10] concerns the target T7, recombinant cynomolgus CD47 (cynomolgus monkey, UniProt A0A2K5X523 19-139).
T7 construct: also called cynom; CD47
Kind of test: SPR, antigen immobilised, antibody as analyte.

The target in test [11] is T3, human CD47 on the cell surface. Kind of test: cell-based or functional assay. This is another data set of the same source.

Read-outs that look alike come from different tables or passages of the source.

T4 sequence (Q8N423 22-597): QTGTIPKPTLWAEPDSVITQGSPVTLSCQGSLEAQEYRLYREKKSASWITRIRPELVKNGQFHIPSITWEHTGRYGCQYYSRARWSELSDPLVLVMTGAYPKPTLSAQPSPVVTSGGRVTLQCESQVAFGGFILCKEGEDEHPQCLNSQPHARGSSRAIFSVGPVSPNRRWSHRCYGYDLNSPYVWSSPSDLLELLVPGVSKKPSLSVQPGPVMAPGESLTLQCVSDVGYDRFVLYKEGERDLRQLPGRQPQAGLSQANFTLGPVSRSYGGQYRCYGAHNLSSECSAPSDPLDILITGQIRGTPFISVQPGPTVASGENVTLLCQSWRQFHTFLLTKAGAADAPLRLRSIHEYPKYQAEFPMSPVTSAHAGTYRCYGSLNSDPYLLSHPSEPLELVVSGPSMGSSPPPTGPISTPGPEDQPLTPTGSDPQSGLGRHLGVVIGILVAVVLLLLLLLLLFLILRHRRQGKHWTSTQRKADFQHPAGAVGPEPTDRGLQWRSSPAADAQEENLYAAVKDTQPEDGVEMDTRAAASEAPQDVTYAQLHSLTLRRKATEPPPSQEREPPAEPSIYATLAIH
T6 sequence (G7PSE7 entry or part of it): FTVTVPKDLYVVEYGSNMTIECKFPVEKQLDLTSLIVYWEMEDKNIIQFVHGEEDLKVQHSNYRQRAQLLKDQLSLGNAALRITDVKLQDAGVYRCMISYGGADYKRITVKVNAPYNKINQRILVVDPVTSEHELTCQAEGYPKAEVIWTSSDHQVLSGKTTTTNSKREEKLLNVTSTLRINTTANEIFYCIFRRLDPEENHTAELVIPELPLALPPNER

B1: PRO3703 (scFv)
scFv: DVQMTQSPSSLSASVGDRVTITCQASQSISSWVSWYQQKPGKPPKLLIYRGGYLESGVPSRFSASGSGTDFTLTISSLQPEDFATYYCQSTDSSTYGGAFGCGTKVTVLGGGGGSGGGGSGGGGSGGGGSQQVVESGGGLVQPGGSLRLSCAVSGIDLNSYAMTWVRQAPGKCLEWIGYIGSASSTYYASWASGRFTISKDNSKNTVYLQMNSLRAEDSAVYFCARGSTYINIWGQGTLVKVSS
notes: anti-CD47 scFv; also called 70-26-B04-sc03
Usually koff stands for the rate constant with which the complex falls apart. By kon is commonly meant the rate constant with which the complex forms. Take B1: in the test with recombinant human CD47 [1], the Kd amounted to 11.9 nM, the koff came out at 0.029 s⁻¹ and the kon was 2.44e+06 M⁻¹ s⁻¹.

B2: PRO5056 (antibody, human IgG1, kappa)
chain: DVQMTQSPSSLSASVGDRVTITCQASQSISSWVSWYQQKPGKPPKLLIYRGGYLESGVPSRFSASGSGTDFTLTISSLQPEDFATYYCQSTDSSTYGGAFGCGTKVTVLGGGGGSGGGGSGGGGSGGGGSQQVVESGGGLVQPGGSLRLSCAVSGIDLNSYAMTWVRQAPGKCLEWIGYIGSASSTYYASWASGRFTISKDNSKNTVYLQMNSLRAEDSAVYFCARGSTYINIWGQGTLVKVSSEPKSSDKTHTCPPCPAPELLGGPSVFLFPPKPKDTLMISRTPEVTCVVVDVSHEDPEVKFNWYVDGVEVHNAKTKPREEQYNSTYRVVSVLTVLHQDWLNGKEYKCKVSNKALPAPIEKTISKAKGQPREPQVYTLPPCREEMTKNQVSLSCAVKGFYPSDIAVEWESNGQPENNYKTTPPVLDSDGSFFLVSKLTVDKSRWQQGNVFSCSVMHEALHNHYTQKSLSLSPGKGGGGSGGGGSDIQMTQSPSSLSASVGDRVTITCQSSESVYSNNQLSWYQQKPGQPPKLLIYDASDLASGVPSRFSGSGSGTDFTLTISSLQPEDFATYYCAGGFSSSSDTAFGCGTKLTVLGGGGGSGGGGSGGGGSGGGGSEVQLVESGGGLVQPGGSLRLSCAASGFSLSSNAMGWVRQAPGKCLEYIGIISVGGFTYYASWAKGRFTISRDNSKNTVYLQMNSLRAEDSATYFCARDRHGGDSSGAFYLWGQGTLVKVSS
heavy: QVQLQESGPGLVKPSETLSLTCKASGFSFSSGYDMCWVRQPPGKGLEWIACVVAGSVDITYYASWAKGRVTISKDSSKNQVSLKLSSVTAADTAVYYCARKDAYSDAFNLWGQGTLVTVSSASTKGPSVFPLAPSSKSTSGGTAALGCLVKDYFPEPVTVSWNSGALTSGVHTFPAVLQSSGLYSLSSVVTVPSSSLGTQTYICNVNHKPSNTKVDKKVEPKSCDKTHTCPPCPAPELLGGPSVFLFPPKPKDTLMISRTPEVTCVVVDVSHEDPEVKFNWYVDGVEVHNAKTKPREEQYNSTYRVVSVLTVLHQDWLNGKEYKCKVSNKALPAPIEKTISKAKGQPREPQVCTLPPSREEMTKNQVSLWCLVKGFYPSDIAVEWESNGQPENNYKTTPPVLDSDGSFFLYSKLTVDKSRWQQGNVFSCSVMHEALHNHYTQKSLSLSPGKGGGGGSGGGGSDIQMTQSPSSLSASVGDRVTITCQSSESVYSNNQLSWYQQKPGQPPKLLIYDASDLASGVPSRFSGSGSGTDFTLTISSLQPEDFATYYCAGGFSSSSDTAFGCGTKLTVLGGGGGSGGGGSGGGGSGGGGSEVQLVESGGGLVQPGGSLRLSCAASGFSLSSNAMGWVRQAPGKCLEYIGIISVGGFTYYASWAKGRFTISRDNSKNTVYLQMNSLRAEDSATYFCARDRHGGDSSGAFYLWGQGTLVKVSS
light: DIQMTQSPSSLSASVGDRVTITCQASQSINDYLAWYQQKPGKAPKLLIYKGGTLASGVPSRFSGSGSGTDFTLTISSLQPEDFATYYCQQGYIITDIDNVFGQGTKVEIKRTVAAPSVFIFPPSDEQLKSGTASVVCLLNNFYPREAKVQWKVDNALQSGNSQESVTEQDSKDSTYSLSSTLTLSKADYEKHKVYACEVTHQGLSSPVTKSFNRGEC
notes: anti-PDL1 x CD47 x (hSA dummy domain); also called PRO5055 with dummy domain for LILRB2-BD
B2: in the test with recombinant human PDL1, the Kd came out at 0.0105 nM, the koff stood at 2.13e-05 s⁻¹ and the kon was determined as 2.02e+06 M⁻¹ s⁻¹. For the same molecule, in the test with recombinant human CD47 [2], the Kd turned out to be 56.6 nM, the koff was determined as 0.0249 s⁻¹ and the kon stood at 439000 M⁻¹ s⁻¹. The “CD47 driven EC50 [nM], phagocytosis of A375 cells” value (from here on “CD47 driven EC50 … of A375 cells”) in [3] turned out to be 76.9 nM. Also, the “PD-L1 driven EC50 [nM], phagocytosis of H292 cells” value (shortened to “PD-L1 driven EC50 [nM]”) in test [4] was 0.13 nM. Besides, in test [5], the “CD47 driven EC50 [nM], phagocytosis of H292 cells” value (“CD47 driven EC50 … of H292 cells” below) was found to be 54.3 nM.

B3: PRO4672 (antibody)
chain 1: DVQMTQSPSSLSASVGDRVTITCQASQSISSWVSWYQQKPGKPPKLLIYRGGYLESGVPSRFSASGSGTDFTLTISSLQPEDFATYYCQSTDSSTYGGAFGCGTKVTVLGGGGGSGGGGSGGGGSGGGGSQQVVESGGGLVQPGGSLRLSCAVSGIDLNSYAMTWVRQAPGKCLEWIGYIGSASSTYYASWASGRFTISKDNSKNTVYLQMNSLRAEDSAVYFCARGSTYINIWGQGTLVKVSSEPKSSDKTHTCPPCPAPELLGGPSVFLFPPKPKDTLMISRTPEVTCVVVDVSHEDPEVKFNWYVDGVEVHNAKTKPREEQYNSTYRVVSVLTVLHQDWLNGKEYKCKVSNKALPAPIEKTISKAKGQPREPQVYTLPPCREEMTKNQVSLSCAVKGFYPSDIAVEWESNGQPENNYKTTPPVLDSDGSFFLVSKLTVDKSRWQQGNVFSCSVMHEALHNHYTQKSLSLSPGKGGGGSGGGGSDVQMTQSPSSLSASVGDRVTITCQASQSIGSNLAWYQQKPGKPPKLLIYKGGTLESGVPSRFSGSGSGTDFTLTISSLQPEDFATYYCQSTAGSSRSGNYGYVFGCGTKVTVLGGGGGSGGGGSGGGGSGGGGSQQLVESGGGLVQPGGSLRLSCAASGFSFTNNYYMCWVRQAPGKCLEWIACMLVGAWGNTYYASWANGRFTISKDNSKNTVYLQMNSLRAEDSAVYFCARARDYTWTLGGDPETSGFNLWGQGTLVKVSS
chain 2: not shown
notes: trispecific anti-PDL1 x CD47 x LILRB2, (scFv)2-Fc-(scFv)2, 37-20-B03-based PDL1-BD
As to B3, in test [6], the “CD86 EC50 [nM], re-polarization of M2 macrophages” value is 0.079 nM; the “CD163 EC50 [nM], re-polarization of M2 macrophages” value was found to be 0.067 nM; the “CD206 EC50 [nM], re-polarization of M2 macrophages” value worked out at 0.12 nM. Moreover, in the test with recombinant human PDL1, the Kd worked out at 0.12 nM, the koff came out at 0.000126 s⁻¹ and the kon is 1.05e+06 M⁻¹ s⁻¹. In the test with recombinant human CD47 [2], the Kd was found to be 57.2 nM, the koff was 0.0256 s⁻¹ and the kon is 448000 M⁻¹ s⁻¹. Further, in the test with recombinant human LILRB2, the Kd was 0.37 nM, the koff is 8.9e-05 s⁻¹ and the kon is 240000 M⁻¹ s⁻¹. In [7], the “IL-1β EC50 [nM], LPS-driven cytokine secretion” value was found to be 0.096 nM; the “IL-6 EC50 [nM], LPS-driven cytokine secretion” value was determined as 0.078 nM; the “TNF-α EC50 [nM], LPS-driven cytokine secretion” value turned out to be 0.123 nM. The “CD47 driven EC50 [nM], phagocytosis of Nalm6 cells” value in test [8] was determined as 15.3 nM. Further, in test [4], the “PD-L1 driven EC50 [nM]” value was 0.32 nM. In addition, in test [5], the “CD47 driven EC50 … of H292 cells” value turned out to be 8.32 nM and the “CD47 driven EC50 [nM], phagocytosis of RBCs” value (“CD47 driven EC50 … of RBCs” below) came out at 39.4 nM.

B4: PRO5052 (antibody)
chain 1: DVQMTQSPSSLSASVGDRVTITCQASQSISSWVSWYQQKPGKPPKLLIYRGGYLESGVPSRFSASGSGTDFTLTISSLQPEDFATYYCQSTDSSTYGGAFGCGTKVTVLGGGGGSGGGGSGGGGSGGGGSQQVVESGGGLVQPGGSLRLSCAVSGIDLNSYAMTWVRQAPGKCLEWIGYIGSASSTYYASWASGRFTISKDNSKNTVYLQMNSLRAEDSAVYFCARGSTYINIWGQGTLVKVSSEPKSSDKTHTCPPCPAPELLGGPSVFLFPPKPKDTLMISRTPEVTCVVVDVSHEDPEVKFNWYVDGVEVHNAKTKPREEQYNSTYRVVSVLTVLHQDWLNGKEYKCKVSNKALPAPIEKTISKAKGQPREPQVYTLPPCREEMTKNQVSLSCAVKGFYPSDIAVEWESNGQPENNYKTTPPVLDSDGSFFLVSKLTVDKSRWQQGNVFSCSVMHEALHNHYTQKSLSLSPGKGGGGSGGGGSDVQMTQSPSSLSASVGDRVTITCQASQSIGSNLAWYQQKPGKPPKLLIYKGGTLESGVPSRFSGSGSGTDFTLTISSLQPEDFATYYCQSTAGSSRSGNYGYVFGCGTKVTVLGGGGGSGGGGSGGGGSGGGGSQQLVESGGGLVQPGGSLRLSCAASGFSFTNNYYMCWVRQAPGKCLEWIACMLVGAWGNTYYASWANGRFTISKDNSKNTVYLQMNSLRAEDSAVYFCARARDYTWTLGGDPETSGFNLWGQGTLVKVSS
chain 2: not shown
notes: trispecific anti-PDL1 x CD47 x LILRB2, (scFv)2-Fc-(scFv)2; also called PRO4672 with 33-03-G02-based PDL1-BD
As for B4, in test [6], the “CD86 EC50 [nM], re-polarization of M2 macrophages” value came out at 0.082 nM; the “CD163 EC50 [nM], re-polarization of M2 macrophages” value is 0.073 nM; the “CD206 EC50 [nM], re-polarization of M2 macrophages” value was determined as 0.134 nM. Besides, the Kd in test [9] amounted to 0.012 nM. In addition, in the test with recombinant human PDL1, the Kd turned out to be 0.013 nM, the koff amounted to 2.9e-05 s⁻¹ and the kon was 2.3e+06 M⁻¹ s⁻¹. Moreover, in the test with recombinant human CD47 [2], the Kd stood at 34 nM, the koff turned out to be 0.022 s⁻¹ and the kon was 660000 M⁻¹ s⁻¹. Moreover, the Kd in test [10] came to 32 nM. For the same molecule, the “CD47 driven EC50 … of A375 cells” value in [11] turned out to be 19.3 nM. In the test with recombinant human LILRB2, the Kd turned out to be 0.19 nM, the koff was found to be 5.4e-05 s⁻¹ and the kon was 290000 M⁻¹ s⁻¹. In test [7], the “IL-1β EC50 [nM], LPS-driven cytokine secretion” value was 0.082 nM; the “IL-6 EC50 [nM], LPS-driven cytokine secretion” value came to 0.077 nM; the “TNF-α EC50 [nM], LPS-driven cytokine secretion” value came to 0.117 nM. Also, in test [4], the “PD-L1 driven EC50 [nM]” value came to 0.2 nM. Also, in test [5], the “CD47 driven EC50 … of H292 cells” value worked out at 10.9 nM and the “CD47 driven EC50 … of RBCs” value stood at 39.8 nM.

B5: PRO3851 (bispecific antibody, human IgG1, kappa, L234A L235A)
heavy 1: not shown
heavy 2: QVQLQESGGGLVQPGGSLRLSCAASAYTISRNSMGWFRQAPGKGLEGVAAIESDGSTSYSDSVKGRFTISLDNSKNTLYLEMNSLRAEDTAVYYCAAPKVGLGPRTALGHLAFMTLPALNYWGQGTLVTVSSGGGGSGGGGSGGGGSGGGGSQVQLQESGGGLVQPGGSLRLSCAASAYTISRNSMGWFRQAPGKGLEGVAAIESDGSTSYSDSVKGRFTISLDNSKNTLYLEMNSLRAEDTAVYYCAAPKVGLGPRTALGHLAFMTLPALNYWGQGTLVTVSSDKTHTCPPCPAPEAAGGPSVFLFPPKPKDTLMISRTPEVTCVVVDVSHEDPEVKFNWYVDGVEVHNAKTKPREEQYNSTYRVVSVLTVLHQDWLNGKEYKCKVSNKALPAPIEKTISKAKGQPREPQVCTLPPSRDELTKNQVSLSCAVKGFYPSDIAVEWESNGQPENNYKTTPPVLDSDGSFFLVSKLTVDKSRWQQGNVFSCSVMHEALHNHYTQKSLSLSPG
light: DIQMTQSPSSVSASVGDRVTITCRASQGISRWLAWYQQKPGKAPKLLIYAASSLQSGVPSRFSGSGSGTDFTLTISSLQPEDFATYYCQQTVSFPITFGGGTKVEIKRTVAAPSVFIFPPSDEQLKSGTASVVCLLNNFYPREAKVQWKVDNALQSGNSQESVTEQDSKDSTYSLSSTLTLSKADYEKHKVYACEVTHQGLSSPVTKSFNRGEC
Regarding B5, the “CD47 driven EC50 … of A375 cells” value in test [11] worked out at 0.9 nM. In addition, the “CD47 driven EC50 [nM], phagocytosis of Nalm6 cells” value in test [8] was determined as 0.99 nM. Besides, in [5], the “CD47 driven EC50 … of H292 cells” value amounted to 1.82 nM and the “CD47 driven EC50 … of RBCs” value worked out at 3 nM.
